# In the DeepSol protein solubility set:
# Test: soluble on expression in E. coli; label from the status in PepcDB or PDB records
row,Sequence,soluble on expression in E. coli
1,MSYKFGKLAINKSELCLANVLQAGQSFRWIWDEKLNQYSTTMKIGQQEKYSVVILRQDEENEILEFVAVGDCGNQDALKTHLMKYFRLDVSLKHLFDNVWIPSDKAFAKLSPQGIRILAQEPWETLISFICSSNNNISRITRMCNSLCSNFGNLITTIDGVAYHSFPTSEELTSRATEAKLRELGFGYRAKYIIETARKLVNDKAEANITSDTTYLQSICKDAQYEDVREHLMSYNGVGPKVADCVCLMGLHMDGIVPVDVHVSRIAKRDYQISANKNHLKELRTKYNALPISRKKINLELDHIRLMLFKKWGSYAGWAQGVLFSKEIGGTSGSTTTGTIKKRKWDMIKETEAIVTKQMKLKVELSDLHIKEAKID,soluble
2,MTAAIAAPAYDAIVIGSGIGGLVTATQLAAKGAKVLVLERYLIPGGSAGWFEREGYRFDFGASIIFGFGDPGTTNLLTPPLADVGQALETIPDPVQIHYHLPNQLDLKVHRDYEAFLQELIAQFPQEAEGIRRFYDECWQVFNCLNAMPLLSLEEPKYLFNVFLQHPLACLGLVKYLPQNVGDIARRYIRNPDLLKFIDMECYCWSVVPATMTPMINAGMVFSDRHYGGINYPKGGVGRIAEKLVAGLEAKGSSIRYKARVTRILTEKGRAIGVELADGEKLYAKRIISNATRWNTFGELLPPQQEPAQEQRWQQRYRQSPSFLSLHLGVKADLLPAGTECHHILLENWDELEVEQGTIFVSIPTLLDPSLAPPDRHIIHTFTPSWLGEWDNLSPSEYRDRKAAAAAKLIQRLEAIFPGLSSAIDYQEVGTPRTHRRFLGRQNGTYGPIPRRKLAGLLGMPFNRTAIPGLYCVGDSTFPGQGLNAVAFSGYACGHRVAADLGLVLEHHHHHH,not soluble
3,MTADLPDEIDETPLDGEYAHDSSPTLLYAIKQVELAIRSHMDALLRPMGITALQYTALTVLRRRDGLSSAELARNSFVTAQTMGEMLSALERRGLVTRRVDPANRRRMLTSLTADALDLLAEYDTSICGLEEQMLADMSVRQRDAFRGYLGRCRIALAETPAH,not soluble
4,MTAEVMSHVTAHFGKTLEECREESGLSVDILDEFKHFWSDDFDVVHRELGCAIICMSNKFSLMDDDVRMHHVNMDEYIKSFPNGQVLAEKMVKLIHNCEKQFDTETDDCTRVVKVAACFKEDSRKEGIAPEVAMVEAVIEKY,soluble
5,MTAFRQRPLRLGHRGAPLKAKENTLESFRLALEAGLDGVELDVWPTRDGVFAVRHDPDTPLGPVFQVDYADLKAQEPDLPRLEEVLALKEAFPQAVFNVELKSFPGLGEEAARRLAALLRGREGVWVSSFDPLALLALRKAAPGLPLGFLMAEDHSALLPCLGVEAVHPHHALVTEEAVAGWRKRGLFVVAWTVNEEGEARRLLALGLDGLIGDRPEVLLPLGG,soluble
6,MTALESSYLNLAYPPRLDLGPQLTHDQLRSSMQSTMARHKGGPVWLFAYGSLIWRPECSAVERKRGRVHGYHRGLYLWSHEHRGTPELPGLVFGLDRGGSCSGFAYRLPEEQLDASLYALWQREMPYPSYRPHWLNCRLEDGSQVQALGFVLERHLPSYAGNLPDDVLNQVFESACGRYGTTRDYVEQTVQALRSHAMPDRNLEARLKRCKGADAHLEHHHHHH,not soluble
7,MTAWHRLPAAARALFGAKGGCTGSQRSYDDVLRVMYELTLRVVNPTYRNRTLANTSGKSAELVGLLVERLNMRRCLDTLRFVHVAGTKGKGTTASYTAALLEAYGLKVGLFTSPHVKDVRERIMVNNEVLPMDTFVHYFFQVVDCFVELAGADKEVTWDLPAPCSFFCLMFLVSLVAFAGESVDVAVVEVGIGGSRDPTNIIIPEASVITALGIDHTEILGDTVEEIALQKAGIMKPGVVCYAAPQGDHPSTRRVLKDYAEGVDSPLVFADDVAVPTDGWPCLSIGGEHAVENSRLALLAARSVMGIPLTQPLDDVERHVLQRTTVMGRSQVLPVGDGSKGTFYLDGAHTYESLRCATRWFVKESTKRTCDSKPRRVLLMYSSRQPERIVEAFRPFVDSFSKAVFVCALDPKGMREIWKNNSDAYTQDKATGLIRCWKTLCGAVPCFSRAAPFVSVEEVVEVVSAASSDDEDTSKPVQVFVTGSFFLVSDIVNLYDSQGS,not soluble
8,MTCTTEIDILKWTVRYCSSLAAHLLTPTRLFKYEIQQQSDLRNATENKTEKYISDDVGHCRHTYMQIR,soluble
9,MTDDKDVLRDVWFGRIPTCFTLYQDEITEREAEPYYLLLPRVSYLTLVTDKVKKHFQKVMRQEDVSEIWFEYEGTPLKWHYPIGLLFDLLASSSALPWNITVHFKSFPEKDLLHCPCKDAVEAHFMSCVKEADALKHKSQVINEMQRKDHKQLWMGLQNDLTSFGPSTGNSWNTLQKKMDFVISLLEYIRPQLNGLSFRSCSVLWPQMDSCIPLEIS,not soluble
10,MTDESDALCATEKEIMHATHRALVNSGYAELSISRISDELDKAKSTIYHYYDSKDALLLRFLRFTVDRFEATINTSIGDNPKEDLNHIISTLLPCQLPEEKRQLHSVLVTLSPQALERAVFREQFTEIDTRLATIIEKTVRRGVDADVFRDVDPTHAAEHILATIKGTMYSRLTTNREAATAAAKASLFSYIDSHLIS,not soluble
11,MTDFLEIRPLTKEAFTPFGDVIETTPSSMRHINGGQTERHHALSAPEAAGEGARIILNIFRGQPRVFPHKIDMMERHPLGSQSFSPLSGRPFLVVVAQDDGGRPARPQVFLARGDQGVNYRRNVWHYPLMPLQAVSDFLVADREGPGNNLEEYFFDEPFMIAEPSLAAALEHHHHHH,soluble
12,MTDFSVWETAPFGATVDHILQRYHNVHRAQFEELVPLAQKVAQVHADTFPAEIAELLAYMQNELLMHMMKEERMLFPMINQGVGRGAAMPIGVMMHEHEEHDRAIARLKELTDNFQPPEGACGSWTRLYALAKEMVEDLNDHIHLENDILFARVLDS,soluble
13,MTDIIIVHSKHGNSKNHWYEWLRHNLTLEGYDVSLFNLEANDHAQIDEWVNEMKQQLHIRKKDTYFVTHGFGSIAALKFLEETHHHIEGFFSIAGFKEDAQDIDEDVDLKGVTIDYDKIKEQVDKFYGLTSKDDQYVSYKETQRLMNSLNGHTRVVEDGGHFLEEEGFVTFTSLINRMQGYMTRLEHHHHHH,not soluble
14,MTDIISQNENKDDFEDGELPEDGEICDDEDESVKAVPSKSSESAPGAHIAPAHPEKTSGRDSRERVRRFEGNSPPRERDPDPFGSHNDAPDGNDYFGGDKDYRSGAAASSEEEPFSDTDYRVNRRRRLSPSHDDGDFDPRSKRPYYGGRGGFRGGFRNGAKPRFQTEHQICKFFREGYCRDGDNCLYSHQAEDSLRRPVLCNFYANSFCKKGLQCLMLHGEFPCKSFHKGQCNHDPCRFSHVPLTDYTRPIIEKILADEEARQAHQAQQAQTYRQNPVANAAAAAAAAQVMPRRRVLLPGGPNMNGSSPPHATPVIHAPIPQASHPSQLPPPAVVVPTIQRNPGPGIPIHQQYPVAPAAGGYFNQGPRPEQVQGLPPPRTIEPPRLSTQTPPIMHQQQPQLMRPMHPVPIQHPHLQQPGLVQPPQIVSQERHTASPQGFNLEAMLNKMANGEKLISSPRNNVVDDSPASPPPSNYSSMFGSSNRVAVIPQTVQVTWGLVRVQRRLPYSNVENPDRIAANDPRRAKAIAKQFDAFSSLLGAGGNAVSDPRLRAQKEKNDRQQNTMPFSSWMPQIS,not soluble
15,MTDKTIAFSLLDLAPIPEGSSAREAFSHSLDLARLAEKRGYHRYWLAEHHNMTGIASAATSVLIGYLAANTTTLHLGSGGVMLPNHSPLVIAEQFGTLNTLYPGRIDLGLGRAPGSDQRTMMALRRHMSGDIDNFPRDVAELVDWFDARDPNPHVRPVPGYGEKIPVWLLGSSLYSAQLAAQLGLPFAFASHFAPDMLFQALHLYRSNFKPSARLEKPYAMVCINIIAADSNRDAEFLFTSMQQAFVKLRRGETGQLPPPIQNMDQFWSPSEQYGVQQALSMSLVGDKAKVRHGLQSILRETDADEIMVNGQIFDHQARLHSFELAMDVKEELLG,soluble
16,MTDKTSLSYKDAGVDIDAGNALVGRIKGVVKKTRRPEVMGGLGGFGALCALPQKYREPVLVSGTDGVGTKLRLAMDLKRHDTIGIDLVAMCVNDLVVQGAEPLFFLDYYATGKLDVDTASAVISGIAEGCLQSGCSLVGGETAEMPGMYHGEDYDVAGFCVGVVEKSEIIDGSKVSDGDVLIALGSSGPHSNGYSLVRKILEVSGCDPQTTELDGKPLADHLLAPTRIYVKSVLELIEKVDVHAIAHLTGGGFWENIPRVLPDNTQAVIDESSWQWPEVFNWLQTAGNVEHHEMYRTFNCGVGMIIALPAPEVDKALALLNANGENAWKIGIIKASDSEQRVVIE,soluble
17,MTDNSKIRVVVGMSGGVDSSVTALLLKEQGYDVIGVFMKNWDDTDEFGVCTATEDYKDVAAVADKIGIPYYSVNFEKEYWDRVFEYFLAEYRAGRTPNPDVMCNKEIKFKAFLDYAMTLGADYVATGHYAQVKRDENGTVHMLRGADNGKDQTYFLSQLSQEQLQKTLFPLGHLQKSEVREIAERAGLATAKKKDSTGICFIGEKNFKQFLSQYLPAQKGRMMTIDGRDMGEHAGLMYYTIGQRGGLGIGGQHGGDNQPWFVVGKDLSQNILYVGQGFYHEALMSNSLDASVIHFTREMPEEFTFECTAKFRYRQPDSHVAVHVRGDKAEVVFAEPQRAITPGQAVVFYDGKECLGGGMIDMAYKNGQPCQYI,not soluble
18,MTDPSSSPIRPDMVEAARKFMLTPKVKETPFEEQRQFLLGKGVSEAEILEARASIPPEQLRSQIGTENMIPIGGHPQMMIAPKQNGIVSFAQSAVVLGSISYAGYRFVRSYVLPRFFDIPDPATEEIRQLQSQVDDLQNSIKFIMDSVSQTTQQLATQQSEISRALYSVANRDADLNRVESGISTIKSLLLSQHNFAPIVTPSVTSSIPSWQQSATPTSATSITTTTTSEAASGYATPPANFKESSLADELADIENIE,not soluble
19,MTDQLQHIRKPPRTGKAARSGTQDEIVYAHIFDAILEQRLAPGTKLSEEALGEIFGVSRTIIRRALSRLAHEQVVLLRPNRGAVVASPSIDEARQILFARRTVERAITELATDNATAERLAEL,not soluble
20,MTDQMRDMIAQLMGSQHVDNKEKPSMPFDHHSVCRAFLLGVCPHDMVPDSRLQNVVSCRKVHEPAHKADYERAQKEKDHFYDVDAFEIIEHAVHLVDIEIAKVREKLEDDVKTQTSQAADSKAKQVAEIEEKIAKNVDDIEKLGNEGKIEESMKLHKYVEELREKIQEIEDSQTEVKTAGPGSNSAKLRVCEDCGAQLNITDHESRIADHYNGKMHIGMVETRETYLKMKETIDERRKEREEKLGSQRGYQRRESYGRRDRGGDRGEYRGDRDRDRRNRDRSRSRDRSYRRDDRGDRRYDRDNRDRRDRDRRY,not soluble
21,MTEAIHCIGCGAIIQTENPHELGYTPKTAFEKGMETGEVYCQRCFRLRHYNDIQDVQLTDDDFLRLLNGLGTEDALIVNVVDIFDFNGSLIPGLHRFIGDNPVLLVGNKVDILPKSLKKPKMVQWMRERAHEAGLRPVDVLLTSGKKPQEMQELLDTIEKYREGRDVYVVGVTNVGKSTLINQIIQQTVGVQDVITTSQFPGTTLDKIEIPLDDGHFLIDTPGIIHRHQMAHYLGKKDLKIIAPQKEIKPKVYQLNAEQTLFLGGLARFDYVQGAKSSFIAYVSNDLKLHRTKTATADAFYEKHVGGLLQPPRADEVAEFPELVRFEFSVKEKTDIVFAGLGWITVTEPGVVAGWAPKGVDVLRRKALILEHHHHHH,not soluble
22,MTEKKSDRTAAKKRSEQAVHELVTRIDTHPGDADAYYELATVLVDLKSFAQAEELLMKALGLFQAQPAVVDKLHYGLGNVYYAAEDYPKAIQQFDSLGAQWKGAGYLMLAQSYMANGDHKRALAFALTALASQPDDVATLQVVAENLLALGNMAQAAQYYDQLLAIDPKNGRAIFDRGLVAMVQGTPYADYFERAQTLDPQYFEQGQQRLADIEKFMQQTPDSDQQLEHHHHHH,soluble
